Data on five molecules can be found in article PMC4777826, “Crystal Structure of the CTP1L Endolysin Reveals How Its Activity Is Regulated by a Secondary Translation Product*^([image sbox.jpg])” (The Journal of Biological Chemistry, 2015).

The target of data set [1] is CBDHis, CTP1L(195-274) with a C-terminal His tag (bacteriophage ΦCTP1). The data set can be described thus: native MS; nano-ESI of each purified sample by itself (wild-type gene products, CBDHis, RBSKO mutants), 150 mM ammonium acetate pH 7.4.
Data set [2] addresses CTP1L endolysin K190S/G191S, ribosomal binding site knock-out (RBSKO) (bacteriophage ΦCTP1). In words: native MS; CBDHis titrated to 10 μM full-length CTP1L RBSKO at molar ratios 1:1, 1:2, 1:3 and 1:6 (full-length:CBDHis), 150 mM ammonium acetate pH 7.4; ratios of species from simulated peaks, three measurements.
The target in data set [3] is CD27L endolysin RBSKO mutant (E181S/G182S) (bacteriophage (targets Clostridium difficile)) (UniProt B6SBV8). In words: native MS; nano-ESI of each purified sample by itself (wild-type gene products, CBDHis, RBSKO mutants), 150 mM ammonium acetate pH 7.4.
Data set [4] concerns the target CTP1L endolysin, full-length (wild type) (bacteriophage ΦCTP1). Described as above.
The target in data set [5] is truncated C-terminal cell wall binding domain of CTP1L (secondary translation product) (bacteriophage ΦCTP1). The data set is described as above.
The target of data set [6] is CTP1L endolysin, full-length (wild type) (bacteriophage ΦCTP1). In words: native MS; nano-ESI of the sample made from the codon-optimised CTP1L gene with the silent C→G back mutation (less truncated CBD made), 150 mM ammonium acetate pH 7.4.
Data set [7] deals with the molecule itself. The data set can be described thus: native MS; nano-ESI of each purified sample by itself (wild-type gene products, CBDHis, RBSKO mutants), 150 mM ammonium acetate pH 7.4.

With “CBDHis, CTP1L(195-274) with a C-terminal His tag (domain or fragment)”, the stoichiometry N in data set [1] was 2. For the same molecule, in data set [2], the ratio of species, 1:1 heterodimer (full-length:CBDHis 1:1) (ratio (total 1.0)) is 0.26; the ratio of species, 1:1 heterodimer (full-length:CBDHis 1:2) (ratio (total 1.0)) was 0.29; the ratio of species, 1:1 heterodimer (full-length:CBDHis 1:3) (ratio (total 1.0)) was 0.27; the ratio of species, 1:1 heterodimer (full-length:CBDHis 1:6) (ratio (total 1.0)) was 0.31. For the same molecule, in data set [2], the ratio of species, 1 FLCTP1L: 3 CBDHis heterotetramer (full-length:CBDHis 1:1) (ratio (total 1.0)) was 0.09; the ratio of species, 1 FLCTP1L: 3 CBDHis heterotetramer (full-length:CBDHis 1:2) (ratio (total 1.0)) was 0.19; the ratio of species, 1 FLCTP1L: 3 CBDHis heterotetramer (full-length:CBDHis 1:3) (ratio (total 1.0)) is 0.27; the ratio of species, 1 FLCTP1L: 3 CBDHis heterotetramer (full-length:CBDHis 1:6) (ratio (total 1.0)) is 0.38. Further, in data set [2], the ratio of species, 2 FLCTP1L: 2 CBDHis heterotetramer (full-length:CBDHis 1:1) (ratio (total 1.0)) is 0.3; the ratio of species, 2 FLCTP1L: 2 CBDHis heterotetramer (full-length:CBDHis 1:2) (ratio (total 1.0)) was 0.32; the ratio of species, 2 FLCTP1L: 2 CBDHis heterotetramer (full-length:CBDHis 1:3) (ratio (total 1.0)) is 0.26; the ratio of species, 2 FLCTP1L: 2 CBDHis heterotetramer (full-length:CBDHis 1:6) (ratio (total 1.0)) is 0.17. Also, in data set [2], the ratio of species, free FLCTP1L monomer (full-length:CBDHis 1:1) (ratio (total 1.0)) was 0.4; the ratio of species, free FLCTP1L monomer (full-length:CBDHis 1:2) (ratio (total 1.0)) is 0.2; the ratio of species, free FLCTP1L monomer (full-length:CBDHis 1:3) (ratio (total 1.0)) is 0.2; the ratio of species, free FLCTP1L monomer (full-length:CBDHis 1:6) (ratio (total 1.0)) is 0.14.

“CD27L endolysin RBSKO mutant (E181S/G182S) (from UniProt B6SBV8 1-270) (enzyme)” showed a stoichiometry N in data set [3] of 2.

“truncated C-terminal cell wall binding domain of CTP1L (secondary translation product)”: in data set [4], the ratio of species, free FLCTP1L monomer (wild-type sample) (ratio (total 1.0)) was 0.03.

“truncated C-terminal cell wall binding domain of CTP1L (secondary translation product) (domain or fragment)” came in with a stoichiometry N in data set [5] of 4. In data set [4], the ratio of species, 1:1 heterodimer (wild-type sample) (ratio (total 1.0)) amounted to 0.12; the ratio of species, 1 FLCTP1L: 3 CBD heterotetramer (wild-type sample) (ratio (total 1.0)) was found to be 0.14; the ratio of species, 2 FLCTP1L: 2 CBD heterotetramer (wild-type sample) (ratio (total 1.0)) worked out at 0.72. In data set [6], the ratio of species, 1:1 heterodimer (C→G sample) (ratio (total 1.0)) came out at 0.09; the ratio of species, 2 FLCTP1L: 2 CBD heterotetramer (C→G sample) (ratio (total 1.0)) was found to be 0.62; the ratio of species, free FLCTP1L monomer (C→G sample) (ratio (total 1.0)) was 0.28.

B1: CD27L endolysin, full-length (wild type) (enzyme, UniProt B6SBV8 1-270, looked up)
chain: MKICITVGHSILKSGACTSADGVVNEYQYNKSLAPVLADTFRKEGHKVDVIICPEKQFKTKNEEKSYKIPRVNSGGYDLLIELHLNASNGQGKGSEVLYYSNKGLEYATRICDKLGTVFKNRGAKLDKRLYILNSSKPTAVLIESFFCDNKEDYDKAKKLGHEGIAKLIVEGVLNKNINNEGVKQMYKHTIVYDGEVDKISATVVGWGYNDGKILICDIKDYVPGQTQNLYVVGGGACEKISSITKEKFIMIKGNDRFDTLYKALDFINR
notes: CD27L endolysin, a bacteriophage endolysin that targets Clostridium difficile; The wild-type sample also holds the truncated CBD; also called FLCD27L; source: E. coli BL21(DE3), pET15b, purified (Ni-NTA)
Consider B1, for which the “stoichiometry N” value in data set [7] worked out at 2.
